Data taken from the nanobody polyreactivity screen of Harvey et al. (2022).

Assay: yeast display, Sf9 membrane polyspecificity reagent, FACS + sequencing; frameworks hold sequencing errors
How it was run: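 Nanobodies came from a synthetic yeast display library in Saccharomyces cerevisiae BJ5465, induced with galactose for 36–48 hours and stained for 1 hour at 4 °C with 10% biotinylated, detergent-solubilized Sf9 membrane reagent. Cells were enriched on streptavidin microbeads and then FACS-sorted, with low and high (top ~1%) gates set on anti-HA fluorescence for expression and streptavidin fluorescence for reagent binding. Each polyreactivity label reflects the gate a clone came from. Genes were amplified by colony PCR, sequenced by MiSeq 2 × 250 and filtered by CDR length.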

| Sequence | polyreactivity (PSR sort gate) |
| --- | --- |
| QVQLVESGGGLVQAGGSLRLSCAASGFTFWDYTMGWYRQAPGKERELVAAISSSGGGTYYADSVKGRFTISRDNAKNTVYLQMNSLKPVDTAVYYCAASVWYYPMDYWGQGTQVTVSS | low polyreactivity |
| QVQLVESGGGLVQAGGSLRLSCAASGFTFWEYAMGWYRQAPGKERELVAAIRDRGVNTYYADSVKGRFTISRDNAKNTVYLQMNSLKPVDTAVYYCAKSTRRGGVALGEYDYWGQGSQVTVSS | low polyreactivity |
| QVQLVESGGGLVQAGGSLRLSCAASGFTFWGNAMGWYRPAPGKERELVAAITDTGSTNYADSVKGRFTISRDNAKNTVYLQMNSLKPEDTAVYYCAKDKAYYDWGQTNGYWGQGTQVTVSS | low polyreactivity |
| QVQLVESGGGLVQAGGSLRLSCAASGFTFWGYTMGWYRQAPGKERELVAAITSTGSTYYAYSVKGRFTISRDNAKNTVYLQMNSLKPEDTSVYYCATARSYLTYSYHYDYWGQGTQVTVSS | low polyreactivity |
| QVQLVESGGGLVQAGGSLRLSCAASGFTFWKYAMGWYRQAPGKERELVATITSSGDNTYYADSVKGRFTISRDNAKNNVYLQMNSLKPEDTAVYYCAADNGYHYNFDYWGQGTQVTVSS | low polyreactivity |
| QVQLVESGGGLVQAGGSLRLSCAASGFTFWLYAMGWYRQAPGKERELVAAIDWDCGTYYADSVKGRFTISRDNAKNTVYLQMNSLKPEDTAVYYCAARYRYYYTRYDYWGQGTQVTVSS | high polyreactivity |
| QVQLVESGGGLVQAGGSLRLSCAASGFTFWRNAMGWYRQAPGKERELVAAISASGGSTYYADSVKGRFTISRDYAKNTVYLQKNSLKPEDTAVYYCAADTQGFYRYDYWGQGTQVTVSS | low polyreactivity |
| QVQLVESGGGLVQAGGSLRLSCAASGFTFWRNTMGWSRQAPGKERELVAAIDRSGSSTYYADSEKGRFTISRDNATNTVYLQMNSLKPEDTAVYYCAAAHTYFTPYGDYWGQGTQVTVSS | low polyreactivity |
| QVQLVESGGGLVQAGGSLRLSCAASGFTFWRNVMGWYRQAPGKERELVAAITRSGGSTYYADSVKGRFTISRDNAKNTVYLQMNSLKPEDTAVYYCNAVRHGGYDYLGQGTQVTVSS | high polyreactivity |
| QVQLVESGGGLVQAGGSLRLSCAASGFTFWTNAMGWYRQAPGKERELVAAITSSGGTTYYADSVKGRFTISRDNAKNTVYLQMNSLKPEDTAVYYCAAELGGYVASYYYPGYDYWGQGTQVTVSS | low polyreactivity |
| QVQLVESGGGLVQAGGSLRLSCAASGFTFWVYAMGWYRQAPGKEREFVAAISGIGDDTNYADSVKGRFTISRDNAKNTVYLQMNSLKPEDTAVYYCATVALRYYGVTEFDYWGQGTQVTVSS | high polyreactivity |
| QVQLVESGGGLVQAGGSLRLSCAASGFTFWWYTMGWYRQAPGKERELVAAITWSGSRTYYADSVKGRFTISRDNAKNTVYLQMNSLKPEDTAVYYCAATYLKVHGEYDYWGQGTQVTVSS | high polyreactivity |
| QVQLVESGGGLVQAGGSLRLSCAASGFTFWYNTMGWYRQAPGKERELVAAINRGGGRTYYADSVKGRFTISRDNAKNTVYLQMNSLKPEDTAVYYCAKKDYYSKVGGPQSEYDYWGQGTQVTVSS | low polyreactivity |
| QVQLVESGGGLVQAGGSLRLSCAASGFTFWYYAMGWYRQAPGKERELVAAISRSGTSTYYADSVKGRFTISRDNAKNTVFLQMNCLKPEDSAVYYCNVLRVNSITYLMDYWVQGTQVTVSS | high polyreactivity |
| QVQLVESGGGLVQAGGSLRLSCAASGFTFWYYAMGWYRQAPGKERELVASISSIGGSTYYADSVKGRFTISRDNAKNTVYLQMNSLKPEDTAVYYCAADRSSNGLMPGSKNEYWGQGTEVTVSS | high polyreactivity |
| QVQLVESGGGLVQAGGSLRLSCAASGFTFWYYAMGWYRQAPGKERELVATISRGGGSTYYADSVKGRFTISRDNAKNTVYLQMNSLKPEDTAVYYCNAALTRVSRFWGGDYYYWGQGTQVTVSS | high polyreactivity |
| QVQLVESGGGLVQAGGSLRLSCAASGFTFWYYDMGWYRQAPGKERELVAAISRSGTSTYYADSVKGRFTISRDNAKNTVYLQMNSLKPEDTAVYYCNKVRNTRSYDYWGQGTQVTVSS | high polyreactivity |
| QVQLVESGGGLVQAGGSLRLSCAASGFTFYAYAMGWYREAPGKERELVATIRRSTGSTYYADSVKGRFTISRDNAKNTVYLQMNSLKQQDTAVYYFATRVWFPITSYDYWGQGTQVTVSS | low polyreactivity |
| QVQLVESGGGLVQAGGSLRLSCAASGFTFYAYAMGWYRQAPGKERELVAAITWDDDSTSYADSVKGRFTISRDNAKNTVYLQMNSLKPEDTAVYYCAADSIRHRRYKYDYWGQGTQVTVSS | low polyreactivity |
| QVQLVESGGGLVQAGGSLRLSCAASGFTFYDYAMGRYIQAPGKERELVAGINSGDSTYYADSVKGRFTISRDNAKNSVYLLMNSLKPEDSAVYYCAADWAWLQWAYDYWGQGTQVTVSS | low polyreactivity |
| QVQLVESGGGLVQAGGSLRLSCAASGFTFYGNAMGSSRQAPGKEREWVAAITSTGNTYYADSVTGRFTISRDNAKNTVYLQMNSLKPEDTAVYYCARRGDILYDYWGQGTQVTVSS | low polyreactivity |
| QVQLVESGGGLVQAGGSLRLSCAASGFTFYGYAKGWYRQAPGKERELVAAISKRGGSTYYADSVKGRFTISRDNAKNPVYLQMNSLKPEDTAVYYCNADKHYQYRYRQYGYWGQGTQVTVSS | high polyreactivity |

| Sequence | polyreactivity (PSR sort gate) |
| --- | --- |
| QVQLVESGGGLVQAGGSLRLSCAASGFTFYGYAMGWYRQAPGKERELVAAISRSGVRTYYADSVKGRFTISRDNAKNTVYLQMNSLKPEDTAVYYCNAVPRYGYYWGQGTQVTVSS | high polyreactivity |
| QVQLVESGGGLVQAGGSLRLSCAASGFTFYGYAMGWYRQAPGKERELVAAITSSGGSTYYADSVKGRFTISRDNAKNTVYLQMNSLKPEDTAVYYCAVVTILVFRYVVPYDYWGQGTQVTVSS | high polyreactivity |
| QVQLVESGGGLVQAGGSLRLSCAASGFTFYGYTMGWYRQAPGKERELVAAINKSGSSTYYADSEKGRFTISRDNAKNTVYLQMNSLKPEDTAVYYCNAYYRKVLGYDKMDYWGQGTQVTVSS | high polyreactivity |
| QVQLVESGGGLVQAGGSLRLSCAASGFTFYHYAMGWYRQAPGKERELVAAIDNGGSTYADSVKGRFTISRDNAKNTVYLQMNSLKPEDTAVYYCAAVYLRYINGFYYWGQGTQVTVSS | low polyreactivity |
| QVQLVESGGGLVQAGGSLRLSCAASGFTFYIYAMGWYRQAPGKERELVAAINFRGGSTYYADSVKGRFTISRDNAKNTVYLQMNSLKPEDTAVYYCAARSRDKYDYWGQGTQVTVSS | high polyreactivity |
| QVQLVESGGGLVQAGGSLRLSCAASGFTFYKNAMGWYRQAPGKERELVAAITRRGSRTYYADSVKGRFTISRDNAKNTVYLQMNSLKPEDTAVYYCAADDGSDAEYYYWGQGTQVTVSS | high polyreactivity |
| QVQLVESGGGLVQAGGSLRLSCAASGFTFYKNTMGWYRQAPGKVRELGAAISSSGSSTYYADSVKGRFTISRDNAKTTVYLQMNSLKPEDTAVYYCAAVSHYPAGYDYWGQGTQVTVSS | high polyreactivity |
| QVQLVESGGGLVQAGGSLRLSCAASGFTFYKYALGWYRQAPGKERELVAAISNSGGSTYYADSVKGRFTISRDNAKNTVYLQMNCLKPEDTAVYYCAKLSDSITLYGYWGQGTQVNVSS | high polyreactivity |
| QVQLVESGGGLVQAGGSLRLSCAASGFTFYKYAMGWYRPAPGKERELVAAITWSGGRTYYADSVKGRFTISRDNAKNTVYLKMNSLKPEDTAVYYCTARQKQGNFDYWGQGTQVTVSS | high polyreactivity |
| QVQLVESGGGLVQAGGSLRLSCAASGFTFYKYAMGWYRQAPGKERELVAAISRRGTSTYYADSVKGRFTISRDNAKNTVYLQMNSLKPEDTAVYYCAAEIWSYPAYDYWGQGTQVTVSS | high polyreactivity |
| QVQLVESGGGLVQAGGSLRLSCAASGFTFYLNAMGWYRQAPGKERELVAAITRRGTSTYYADSVKGRFTISRDNAKNTVYLQMNSLKPEDTAVYYCAARPLDYWGQGTQVTVSS | high polyreactivity |
| QVQLVESGGGLVQAGGSLRLSCAASGFTFYLYAMGWYRQAPGKERELVASISSGGRTKYADSVKGRFSISRDNAMNTVYLQMNSLKPEDTAVYYCAARGYFTRQFTPYDYWGQGTQVTVSS | high polyreactivity |
| QVQLVESGGGLVQAGGSLRLSCAASGFTFYLYTMGWYRQAPGKERELVATITSDGGTNYADSVKGRFTISRDNAKNTVYLQMNSLKPEDTAVYYCNAASRRGSRKQAKYDFWGQGTQVTVSS | low polyreactivity |
| QVQLVESGGGLVQAGGSLRLSCAASGFTFYLYTMGWYRQAPGKERELVATITSDGGTNYADSVKGRFTISRDNAKNTVYLQMNSLTPEDTAVYYCARDYLSPYAVDYWGQGTQVTVSS | low polyreactivity |
| QVQLVESGGGLVQAGGSLRLSCAASGFTFYLYTMGWYRQAPGKERELVATITSDGGTNYADSVKGRFTISRDNAKYTVYLQMNSLKPEDTAVYYCNAASRRGSRKQAKYDYWGQGTQVTVSS | low polyreactivity |
| QVQLVESGGGLVQAGGSLRLSCAASGFTFYNNAMGWYRQAPGKERELVAAISRSGGSTHYADSVKGRFTISRDTAKNTVYLQMNSLKPEDNAVYYCAKVGVLGYYTYYYWGQVTQVTVSS | low polyreactivity |
| QVQLVESGGGLVQAGGSLRLSCAASGFTFYNYAMGWFRQATGKERELVAASNSGGSTYYADSVKGRFTSSRDNATNTVYLQMNSLKPEDTAVDYFAARSYYQYRRYYSWGQGTQVTVSS | high polyreactivity |
| QVQLVESGGGLVQAGGSLRLSCAASGFTFYNYAMGWYRQAPGKERELVAAISYSGGSTYYADSVKGRFTISRDNAKNTVYLQMNSLKPEDTAVYYCAVVWWIQYVPGSYHAGYYWGQGTQVTVSS | high polyreactivity |
| QVQLVESGGGLVQAGGSLRLSCAASGFTFYQYAMGWYRQAPGKERELVAAISSSGTSTYYADSVKGRFTISRDNAKNTVYLQMNSLKPEDTAVYYCAKDKSPYGYATNQYRKYYYWGQGTQVTVSS | low polyreactivity |
| QVQLVESGGGLVQAGGSLRLSCAASGFTFYQYAMGWYRQAPGKERELVASISWSGGRTYYADSVKGRFTISRDNAKNTVYLQMNSLKPEDTAVYYCAARAYRIAGYDYWGQGTQVTVSS | high polyreactivity |
| QVQLVESGGGLVQAGGSLRLSCAASGFTFYRNAMGWYRQAPGKERELVAGISKRGGSTYYADSVKGRFTISRDNAKNTVYLQMNSLKPEDTAVYYCAAYKQYRFYRYDYWGQGTQVTVSS | high polyreactivity |
